Tests used:
[1] = target: Human Serum Albumin (human) (UniProt P02768); assay: calculated from KD(HSA) at 150 µM HSA (equation 2)
[2] = target: Human Serum Albumin (human) (UniProt P02768); assay: Transil XL HSA binding kit (immobilized HSA), unbound compound by RP-HPLC
[3] = target: Human Serum Albumin (human) (UniProt P02768); assay: calculated from KD at 588 µM HSA (equation 2)

Work on UCCB01-144 (peptide) yielded a fu (%), fraction unbound [1] of 67.9%, a Kd [2] of 318 µM and a fb (%), fraction bound to HSA [3] of 65.3%.
